The results in this text go back to patent US20210403595 (published 2021).

One may read the Kd as the free concentration of one partner at which half of the binding sites on the other are occupied at equilibrium, for simple one-to-one binding. As usually defined, the EC50 is the concentration giving half of the maximal effect. High values mean a less potent agent, low ones a more potent agent.

Read-outs that look alike come from different tables or passages of the source.

Test [1] has as its target human CD3 epsilon/delta heterodimer, Fc-tagged (human). The experiment in a line: SPR, 25C antigen-capture. (SPR reads the build-up and loss of mass on a sensor chip optically.)
The target in test [2] is human PSMA on cells (human). The experiment in a line: FACS, 22RV1.
human PSMA on cells (human), sequence (A4UU12 whole entry): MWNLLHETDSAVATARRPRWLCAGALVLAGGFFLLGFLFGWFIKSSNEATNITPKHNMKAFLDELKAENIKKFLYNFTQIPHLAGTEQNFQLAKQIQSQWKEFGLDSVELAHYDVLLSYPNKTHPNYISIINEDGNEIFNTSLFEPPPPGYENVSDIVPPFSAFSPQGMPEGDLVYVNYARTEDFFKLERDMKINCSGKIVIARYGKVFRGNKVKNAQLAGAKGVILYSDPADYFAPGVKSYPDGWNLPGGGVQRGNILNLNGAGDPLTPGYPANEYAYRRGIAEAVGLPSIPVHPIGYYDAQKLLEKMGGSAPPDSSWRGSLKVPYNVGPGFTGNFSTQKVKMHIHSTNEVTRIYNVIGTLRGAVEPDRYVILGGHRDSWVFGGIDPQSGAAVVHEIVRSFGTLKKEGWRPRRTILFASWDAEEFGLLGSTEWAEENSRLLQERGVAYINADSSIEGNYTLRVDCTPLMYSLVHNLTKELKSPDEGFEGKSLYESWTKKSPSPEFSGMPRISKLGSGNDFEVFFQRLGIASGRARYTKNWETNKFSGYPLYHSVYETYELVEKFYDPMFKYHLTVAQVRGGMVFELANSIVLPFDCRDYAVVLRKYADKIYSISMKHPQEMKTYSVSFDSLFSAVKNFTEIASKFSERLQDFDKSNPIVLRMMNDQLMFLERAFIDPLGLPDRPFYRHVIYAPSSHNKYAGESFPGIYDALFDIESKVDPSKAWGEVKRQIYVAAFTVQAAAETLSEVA
Test [3] deals with T1, cynomolgus CD3 on T cells (cynomolgus monkey).
T1 chain: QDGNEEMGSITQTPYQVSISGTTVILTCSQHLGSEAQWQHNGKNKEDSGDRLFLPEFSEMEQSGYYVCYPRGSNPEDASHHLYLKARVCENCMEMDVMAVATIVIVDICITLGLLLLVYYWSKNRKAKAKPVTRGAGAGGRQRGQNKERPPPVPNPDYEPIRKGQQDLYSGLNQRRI
Kind of test: FACS. In general terms: A flow cytometer gives signals particle by particle.

The target in test [4] is human CD3 on Jurkat cells (human). The experiment in a line: FACS.
human CD3 on Jurkat cells (human), sequence (chain, as listed by the source, chain 1 of 2): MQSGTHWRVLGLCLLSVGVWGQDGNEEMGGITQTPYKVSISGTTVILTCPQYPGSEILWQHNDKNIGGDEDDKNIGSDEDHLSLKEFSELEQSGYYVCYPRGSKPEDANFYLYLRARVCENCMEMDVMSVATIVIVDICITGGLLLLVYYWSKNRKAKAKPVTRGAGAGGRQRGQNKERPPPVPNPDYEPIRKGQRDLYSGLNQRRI
human CD3 on Jurkat cells (human), sequence (chain, as listed by the source, chain 2 of 2): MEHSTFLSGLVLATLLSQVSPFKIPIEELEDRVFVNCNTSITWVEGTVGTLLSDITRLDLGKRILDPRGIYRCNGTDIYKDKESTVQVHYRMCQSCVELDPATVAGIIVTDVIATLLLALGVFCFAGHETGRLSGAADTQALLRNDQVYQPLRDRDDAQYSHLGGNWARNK
Test [5] deals with human CD3 epsilon/delta heterodimer, Fc-tagged (human). Kind of test: SPR, 25C antibody-capture.
human CD3 epsilon/delta heterodimer, Fc-tagged (human), sequence (chain, as listed by the source mutant, chain 1 of 2): as the sequence (chain, as listed by the source, chain 1 of 2) above
human CD3 epsilon/delta heterodimer, Fc-tagged (human), sequence (chain, as listed by the source mutant, chain 2 of 2): as the sequence (chain, as listed by the source, chain 2 of 2) above
The target of test [6] is human CD3 on Jurkat cells (human). Kind of test: FACS. This is another data set of the same source.
Test [7] addresses human CD3 epsilon/delta heterodimer, Fc-tagged (human). The experiment in a line: SPR, 25C antigen-capture. This is another data set of the same source.
Test [8] concerns the target human CD3 on Jurkat cells (human). Kind of test: FACS. This is another data set of the same source.
Test [9] concerns the target human PSMA, N-terminal 6xHis (soluble) (human). The experiment in a line: SPR, 37C.

human PSMA, N-terminal 6xHis (soluble) (human), sequence (A4UU12 whole entry): as the sequence (A4UU12 whole entry) above

B1: H1H7250P (antibody, V domains shown)
VH: QVQLVESGGGLVQPGRSLRLSCAASGFTFDDYTMHWVRQGPGKGLEWVSDIGWNSNTKGYADSVKGRFTISRDNAKNSLYLQMNSLRPEDTALYFCVKDKSGYGKFFIGLDVWGQGTMVTVSS
VL: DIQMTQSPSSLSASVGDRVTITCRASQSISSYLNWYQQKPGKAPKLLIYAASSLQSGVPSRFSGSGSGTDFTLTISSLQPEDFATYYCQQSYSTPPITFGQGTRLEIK
Regarding B1, the Kd in [1] was 0.82 nM.

B2: BSPSMA/CD3-001 PSMA arm (antibody, V domains shown)
VH: QVQLVESGGGVVQPGRSLRLSCAASGFTFITYGMHWVRQAPGKGLEWVAIIYYDESNKYYADSVKGRFTISRDISKNTLYLQMNGLRAEDTAVYYCARAPRVAVEEDYSYYYGMDVWGQGTTVTVSS
VL: EIVMTQSPATLSVSPGERAILSCRASQNINSNLAWYQQKPGQAPRLLIYGASTRATGVPARFSGSGSGTEFTLTIRSLQSEDFAVYYCQQYYNWPITFGHGTRLEIK
Take B2: the EC50 in test [2] worked out at 78.5 nM.

B3: H1H2690N (antibody, V domains shown)
VH: EVQLVESGGGLVQPGRSLRLSCAASGFTFDDYTMHWVRQAPGKGLEWVSGISWNSGSIGYADSVKGRFTISRDNAKKSLYLQMNSLRAEDTALYYCAKDNSGYGHYYYGMDVWGQGTTVTVAS
VL: EIVMTQSPATLSVSPGERATLSCRASQSVSSNLAWYQQKPGQAPRLLIYGASTRATGIPARFSGSGSGTEFTLTISSLQSEDFAVYYCQHYINWPLTFGGGTKVEIK
For the molecule B3, the EC50 in [3] was found to be 5.66 nM.

B4: H1H7232P (antibody, V domains shown)
VH: EVQLVESGGGLVHPGRSLRLSCAASGFTFDDYTMHWVRQAPGKGLEWVSDISWNSGSRGYADSVKGRFTISRDNAENSLYLQMNSLRAEDTALYYCAKDKSGYGHYYYYAMDVWGQGTTVTVSS
VL: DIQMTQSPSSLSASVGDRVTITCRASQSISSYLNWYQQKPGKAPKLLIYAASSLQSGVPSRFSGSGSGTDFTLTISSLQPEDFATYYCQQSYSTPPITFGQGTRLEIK
B4 displayed an EC50 in test [4] of 1.5 nM. For the same molecule, the Kd amounted to 10 nM in [1] and 220 nM in [5].

B5: H1H7279P (antibody, V domains shown)
VH: EVQLVESGGGLVKPGGSLRISCAASGFSFINAWMNWVRQAPGKGLEWVGRIKSISDGGTTDYAASVKGRFTISREDSKNMLFLEMNSLKTEDTAVFYCTTEVARTPNYWGRGTLVTVSS
VL: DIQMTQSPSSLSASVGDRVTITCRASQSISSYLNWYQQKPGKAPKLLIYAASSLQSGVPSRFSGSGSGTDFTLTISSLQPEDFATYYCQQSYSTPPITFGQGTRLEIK
With B5, the binding result in test [6] and in test [7] was “no binding” throughout.

B6: H2M2689N (antibody, V domains shown)
VH: QVQLVESGGGVVQPGRSLRLSCAASGFTFSRKGMHWVRQAPVKGLEWVAVISYDGSNKYYADSVKGRFTISRDNSKNTLYLQMNSLTAEDTAVYYCAKEGGHDYGGTFDYWGQGTLVTVSS
VL: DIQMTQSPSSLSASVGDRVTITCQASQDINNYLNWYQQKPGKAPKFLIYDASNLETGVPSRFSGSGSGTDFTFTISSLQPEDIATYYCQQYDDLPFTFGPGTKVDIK
As for B6, the binding result in test [8] is listed as “no binding”.

B7: H1H11835P2 (antibody, V domains shown)
VH: EVQLVESGGGLVQSGGSLRLSCEASGFTFSNYWMTWIRQGPGKGLEWVANIKPDGTENYYVDSVKGRFTISRDNARNSLYLQMTSLKAEDTAVYYCGRMIQFVINIWGQGTLVTVSS
VL: DIQMTQSPSSLSASVGDSVTITCRASQSINNYLNWYQQKPGKAPKLLIYTASSLLSGVPSRFSGSGSGTDFTLTISGLHPEDFATYFCQQSFSTPPITFGQGTRLDIK
In test [9], B7 had a dissociation constant Kd of 14 nM.
